Test results as given in paper PMC7251214.

Molecular target: MtrD multidrug efflux pump from N. gonorrhoeae strain CR.103 (MtrD_(CR103)) (Neisseria gonorrhoeae) (UniProt Q51073)
Experiment: cryo-EM structure; single-particle cryo-EM of purified MtrD_(CR103) in lipid nanodiscs (MSP 1E3D1), 2 uM, 20 mM Tris-HCl pH 7.5, 100 mM NaCl; one structure with fortuitously bound hydrolyzed ampicillin, one after incubation with 10 uM erythromycin for 2 h; C1 symmetry

MtrD multidrug efflux pump from N. gonorrhoeae strain CR.103 (MtrD_(CR103)) (from UniProt Q51073 1-1067) (natural protein)
stoichiometry N: 3
